The record followed here is patent US20100041597A1 (published 2010).

In assay [1] the target is T1, PKC-ι (endogenous, human cell extracts) (human, UniProt P41743 2-596).
T1 construct: also called PKC-iota
T1 sequence (looked up): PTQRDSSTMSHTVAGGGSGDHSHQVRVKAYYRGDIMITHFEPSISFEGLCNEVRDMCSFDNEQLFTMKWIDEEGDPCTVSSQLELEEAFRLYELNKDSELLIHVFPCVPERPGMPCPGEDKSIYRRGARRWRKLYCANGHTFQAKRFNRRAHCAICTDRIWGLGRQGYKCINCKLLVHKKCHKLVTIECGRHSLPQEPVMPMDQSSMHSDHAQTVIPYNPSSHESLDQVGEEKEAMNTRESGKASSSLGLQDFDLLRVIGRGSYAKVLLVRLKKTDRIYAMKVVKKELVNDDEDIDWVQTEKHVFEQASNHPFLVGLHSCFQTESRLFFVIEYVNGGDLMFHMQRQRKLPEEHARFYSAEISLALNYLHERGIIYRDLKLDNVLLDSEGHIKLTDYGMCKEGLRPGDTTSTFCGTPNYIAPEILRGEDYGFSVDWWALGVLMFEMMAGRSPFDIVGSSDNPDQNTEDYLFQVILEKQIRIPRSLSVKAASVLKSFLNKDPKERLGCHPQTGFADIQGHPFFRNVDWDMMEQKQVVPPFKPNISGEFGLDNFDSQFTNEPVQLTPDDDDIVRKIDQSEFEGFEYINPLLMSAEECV
Put plainly: Western-blot competition on cell extracts against the anti-PKC-ι primary antibody; band densitometry.

Assay [2] has as its target T2, PKC-ε (endogenous, human cell extracts) (human, UniProt Q02156 1-737).
T2 construct: Two bands on the blot, said to be alternate splicing variants; also called PKC-epsilon; PKC-ε Band 1
T2 sequence (looked up): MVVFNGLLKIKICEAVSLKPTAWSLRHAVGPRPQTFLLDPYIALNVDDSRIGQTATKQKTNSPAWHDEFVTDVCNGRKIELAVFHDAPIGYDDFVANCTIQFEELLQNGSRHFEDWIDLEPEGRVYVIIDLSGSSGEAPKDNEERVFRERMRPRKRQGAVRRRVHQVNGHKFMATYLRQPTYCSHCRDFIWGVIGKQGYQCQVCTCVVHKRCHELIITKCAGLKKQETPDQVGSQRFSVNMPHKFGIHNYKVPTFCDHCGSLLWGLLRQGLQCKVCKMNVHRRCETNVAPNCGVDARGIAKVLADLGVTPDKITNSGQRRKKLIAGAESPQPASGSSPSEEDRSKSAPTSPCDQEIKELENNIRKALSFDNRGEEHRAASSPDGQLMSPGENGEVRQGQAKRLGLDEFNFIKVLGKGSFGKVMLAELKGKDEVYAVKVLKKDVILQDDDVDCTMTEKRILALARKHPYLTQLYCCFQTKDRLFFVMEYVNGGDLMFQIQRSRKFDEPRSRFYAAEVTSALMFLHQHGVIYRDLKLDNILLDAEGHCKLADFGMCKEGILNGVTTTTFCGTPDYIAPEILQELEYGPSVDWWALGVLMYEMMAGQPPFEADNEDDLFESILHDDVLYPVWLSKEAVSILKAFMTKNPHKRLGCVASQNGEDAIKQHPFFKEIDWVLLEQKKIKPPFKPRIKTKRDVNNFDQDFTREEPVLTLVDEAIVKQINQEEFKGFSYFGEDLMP
Put plainly: Western-blot competition on cell extracts against the anti-PKC-ε primary antibody; band densitometry.

B1: PRE 12 (peptide)
peptide: Ac-KDAQNLI-NH2
notes: Synthetic peptide; also called peptide PRE 12; Ac-KDAQNLI-NH2
In the case of B1, the binding result in assay [1] and in assay [2] was “no binding (tested: 20X the primary antibody concentration)” throughout.
